From patent publication US20240270846A1 (published 2024)

B1: GLS3000 Q90S one-arm antibody (antibody, human IgG1, kappa, L234A L235A, N297A, name in Kabat numbering)
light: DIVMTQSPLSLPVTPGEPASISCRSSQSLVHSNRNTYLHWYQQKPGQAPRLLIYKVSNRFSGVPDRFSGSGSGTDFTLKISRVEAEDVGVYYCGSGTQVPYTFGQGTKLEIKRTVAAPSVFIFPPSDEQLKSGTASVVCLLNNFYPREAKVQWKVDNALQSGNSQESVTEQDSKDSTYSLSSTLTLSKADYEKHKVYACEVTHQGLSSPVTKSFNRGEC
heavy: QVQLVESGGGVVQPGRSLRLSCAASGFTFSNAWMHWVRQAPGKGLEWVAQIKAKSNNYATYYAESVKGRFTISRDDSKNSLYLQMNSLKTEDTAVYYCRYVHYGAYYGVDAWGQGTTVTVSSASTKGPSVFPLAPSSKSTSGGTAALGCLVKDYFPEPVTVSWNSGALTSGVHTFPAVLQSSGLYSLSSVVTVPSSSLGTQTYICNVNHKPSNTKVDKKVEPKSCDKTHTCPPCPAPEAAGGPSVFLFPPKPKDTLMISRTPEVTCVVVDVSHEDPEVKFNWYVDGVEVHNAKTKPREEQYASTYRVVSVLTVLHQDWLNGKEYKCKVSNKALPAPIEKTISKAKGQPREPQVYTLPPSRCELTKNQVSLSCAVKGFYPSDIAVEWESNGQPENNYKTTPPVLDSDGSFFLVSKLTVDKSRWQQGNVFSCSVMHEALHNHYTQKSLSLSPDYKDDDDK
chain: EPKSSDKTHTCPPCPAPELLGGPSVFLFPPKPKDTLMISRTPEVTCVVVDVSHEDPEVKFNWYVDGVEVHNAKTKPREEQYNSTYRVVSVLTVLHQDWLNGKEYKCKVSNKALPAPIEKTISKAKGQPREPQVCTLPPSRDELTKNQVSLWCLVKGFYPSDIAVEWESNGQPENNYKTTPPVLDSDGSFFLYSKLTVDKSRWQQGNVFSCSVMHEALHNRYTQKSLSLSP
B2: GLS3000 Q93D one-arm antibody (antibody, human IgG1, kappa, L234A L235A, N297A, name in Kabat numbering)
light: DIVMTQSPLSLPVTPGEPASISCRSSQSLVHSNRNTYLHWYQQKPGQAPRLLIYKVSNRFSGVPDRFSGSGSGTDFTLKISRVEAEDVGVYYCGQGTDVPYTFGQGTKLEIKRTVAAPSVFIFPPSDEQLKSGTASVVCLLNNFYPREAKVQWKVDNALQSGNSQESVTEQDSKDSTYSLSSTLTLSKADYEKHKVYACEVTHQGLSSPVTKSFNRGEC
heavy: QVQLVESGGGVVQPGRSLRLSCAASGFTFSNAWMHWVRQAPGKGLEWVAQIKAKSNNYATYYAESVKGRFTISRDDSKNSLYLQMNSLKTEDTAVYYCRYVHYGAYYGVDAWGQGTTVTVSSASTKGPSVFPLAPSSKSTSGGTAALGCLVKDYFPEPVTVSWNSGALTSGVHTFPAVLQSSGLYSLSSVVTVPSSSLGTQTYICNVNHKPSNTKVDKKVEPKSCDKTHTCPPCPAPEAAGGPSVFLFPPKPKDTLMISRTPEVTCVVVDVSHEDPEVKFNWYVDGVEVHNAKTKPREEQYASTYRVVSVLTVLHQDWLNGKEYKCKVSNKALPAPIEKTISKAKGQPREPQVYTLPPSRCELTKNQVSLSCAVKGFYPSDIAVEWESNGQPENNYKTTPPVLDSDGSFFLVSKLTVDKSRWQQGNVFSCSVMHEALHNHYTQKSLSLSPDYKDDDDK
chain: EPKSSDKTHTCPPCPAPELLGGPSVFLFPPKPKDTLMISRTPEVTCVVVDVSHEDPEVKFNWYVDGVEVHNAKTKPREEQYNSTYRVVSVLTVLHQDWLNGKEYKCKVSNKALPAPIEKTISKAKGQPREPQVCTLPPSRDELTKNQVSLWCLVKGFYPSDIAVEWESNGQPENNYKTTPPVLDSDGSFFLYSKLTVDKSRWQQGNVFSCSVMHEALHNRYTQKSLSLSP
B3: GLS3000 Q93A one-arm antibody (antibody, human IgG1, kappa, L234A L235A, N297A, name in Kabat numbering)
light: DIVMTQSPLSLPVTPGEPASISCRSSQSLVHSNRNTYLHWYQQKPGQAPRLLIYKVSNRFSGVPDRFSGSGSGTDFTLKISRVEAEDVGVYYCGQGTAVPYTFGQGTKLEIKRTVAAPSVFIFPPSDEQLKSGTASVVCLLNNFYPREAKVQWKVDNALQSGNSQESVTEQDSKDSTYSLSSTLTLSKADYEKHKVYACEVTHQGLSSPVTKSFNRGEC
heavy: QVQLVESGGGVVQPGRSLRLSCAASGFTFSNAWMHWVRQAPGKGLEWVAQIKAKSNNYATYYAESVKGRFTISRDDSKNSLYLQMNSLKTEDTAVYYCRYVHYGAYYGVDAWGQGTTVTVSSASTKGPSVFPLAPSSKSTSGGTAALGCLVKDYFPEPVTVSWNSGALTSGVHTFPAVLQSSGLYSLSSVVTVPSSSLGTQTYICNVNHKPSNTKVDKKVEPKSCDKTHTCPPCPAPEAAGGPSVFLFPPKPKDTLMISRTPEVTCVVVDVSHEDPEVKFNWYVDGVEVHNAKTKPREEQYASTYRVVSVLTVLHQDWLNGKEYKCKVSNKALPAPIEKTISKAKGQPREPQVYTLPPSRCELTKNQVSLSCAVKGFYPSDIAVEWESNGQPENNYKTTPPVLDSDGSFFLVSKLTVDKSRWQQGNVFSCSVMHEALHNHYTQKSLSLSPDYKDDDDK
chain: EPKSSDKTHTCPPCPAPELLGGPSVFLFPPKPKDTLMISRTPEVTCVVVDVSHEDPEVKFNWYVDGVEVHNAKTKPREEQYNSTYRVVSVLTVLHQDWLNGKEYKCKVSNKALPAPIEKTISKAKGQPREPQVCTLPPSRDELTKNQVSLWCLVKGFYPSDIAVEWESNGQPENNYKTTPPVLDSDGSFFLYSKLTVDKSRWQQGNVFSCSVMHEALHNRYTQKSLSLSP
B4: GLS3000 Q93P one-arm antibody (antibody, human IgG1, kappa, L234A L235A, N297A, name in Kabat numbering)
light: DIVMTQSPLSLPVTPGEPASISCRSSQSLVHSNRNTYLHWYQQKPGQAPRLLIYKVSNRFSGVPDRFSGSGSGTDFTLKISRVEAEDVGVYYCGQGTPVPYTFGQGTKLEIKRTVAAPSVFIFPPSDEQLKSGTASVVCLLNNFYPREAKVQWKVDNALQSGNSQESVTEQDSKDSTYSLSSTLTLSKADYEKHKVYACEVTHQGLSSPVTKSFNRGEC
heavy: QVQLVESGGGVVQPGRSLRLSCAASGFTFSNAWMHWVRQAPGKGLEWVAQIKAKSNNYATYYAESVKGRFTISRDDSKNSLYLQMNSLKTEDTAVYYCRYVHYGAYYGVDAWGQGTTVTVSSASTKGPSVFPLAPSSKSTSGGTAALGCLVKDYFPEPVTVSWNSGALTSGVHTFPAVLQSSGLYSLSSVVTVPSSSLGTQTYICNVNHKPSNTKVDKKVEPKSCDKTHTCPPCPAPEAAGGPSVFLFPPKPKDTLMISRTPEVTCVVVDVSHEDPEVKFNWYVDGVEVHNAKTKPREEQYASTYRVVSVLTVLHQDWLNGKEYKCKVSNKALPAPIEKTISKAKGQPREPQVYTLPPSRCELTKNQVSLSCAVKGFYPSDIAVEWESNGQPENNYKTTPPVLDSDGSFFLVSKLTVDKSRWQQGNVFSCSVMHEALHNHYTQKSLSLSPDYKDDDDK
chain: EPKSSDKTHTCPPCPAPELLGGPSVFLFPPKPKDTLMISRTPEVTCVVVDVSHEDPEVKFNWYVDGVEVHNAKTKPREEQYNSTYRVVSVLTVLHQDWLNGKEYKCKVSNKALPAPIEKTISKAKGQPREPQVCTLPPSRDELTKNQVSLWCLVKGFYPSDIAVEWESNGQPENNYKTTPPVLDSDGSFFLYSKLTVDKSRWQQGNVFSCSVMHEALHNRYTQKSLSLSP
B5: GLS3000 Q93E one-arm antibody (antibody, human IgG1, kappa, L234A L235A, N297A, name in Kabat numbering)
light: DIVMTQSPLSLPVTPGEPASISCRSSQSLVHSNRNTYLHWYQQKPGQAPRLLIYKVSNRFSGVPDRFSGSGSGTDFTLKISRVEAEDVGVYYCGQGTEVPYTFGQGTKLEIKRTVAAPSVFIFPPSDEQLKSGTASVVCLLNNFYPREAKVQWKVDNALQSGNSQESVTEQDSKDSTYSLSSTLTLSKADYEKHKVYACEVTHQGLSSPVTKSFNRGEC
heavy: QVQLVESGGGVVQPGRSLRLSCAASGFTFSNAWMHWVRQAPGKGLEWVAQIKAKSNNYATYYAESVKGRFTISRDDSKNSLYLQMNSLKTEDTAVYYCRYVHYGAYYGVDAWGQGTTVTVSSASTKGPSVFPLAPSSKSTSGGTAALGCLVKDYFPEPVTVSWNSGALTSGVHTFPAVLQSSGLYSLSSVVTVPSSSLGTQTYICNVNHKPSNTKVDKKVEPKSCDKTHTCPPCPAPEAAGGPSVFLFPPKPKDTLMISRTPEVTCVVVDVSHEDPEVKFNWYVDGVEVHNAKTKPREEQYASTYRVVSVLTVLHQDWLNGKEYKCKVSNKALPAPIEKTISKAKGQPREPQVYTLPPSRCELTKNQVSLSCAVKGFYPSDIAVEWESNGQPENNYKTTPPVLDSDGSFFLVSKLTVDKSRWQQGNVFSCSVMHEALHNHYTQKSLSLSPDYKDDDDK
chain: EPKSSDKTHTCPPCPAPELLGGPSVFLFPPKPKDTLMISRTPEVTCVVVDVSHEDPEVKFNWYVDGVEVHNAKTKPREEQYNSTYRVVSVLTVLHQDWLNGKEYKCKVSNKALPAPIEKTISKAKGQPREPQVCTLPPSRDELTKNQVSLWCLVKGFYPSDIAVEWESNGQPENNYKTTPPVLDSDGSFFLYSKLTVDKSRWQQGNVFSCSVMHEALHNRYTQKSLSLSP
B6: GLS3000 Q93R one-arm antibody (antibody, human IgG1, kappa, L234A L235A, N297A, name in Kabat numbering)
light: DIVMTQSPLSLPVTPGEPASISCRSSQSLVHSNRNTYLHWYQQKPGQAPRLLIYKVSNRFSGVPDRFSGSGSGTDFTLKISRVEAEDVGVYYCGQGTRVPYTFGQGTKLEIKRTVAAPSVFIFPPSDEQLKSGTASVVCLLNNFYPREAKVQWKVDNALQSGNSQESVTEQDSKDSTYSLSSTLTLSKADYEKHKVYACEVTHQGLSSPVTKSFNRGEC
heavy: QVQLVESGGGVVQPGRSLRLSCAASGFTFSNAWMHWVRQAPGKGLEWVAQIKAKSNNYATYYAESVKGRFTISRDDSKNSLYLQMNSLKTEDTAVYYCRYVHYGAYYGVDAWGQGTTVTVSSASTKGPSVFPLAPSSKSTSGGTAALGCLVKDYFPEPVTVSWNSGALTSGVHTFPAVLQSSGLYSLSSVVTVPSSSLGTQTYICNVNHKPSNTKVDKKVEPKSCDKTHTCPPCPAPEAAGGPSVFLFPPKPKDTLMISRTPEVTCVVVDVSHEDPEVKFNWYVDGVEVHNAKTKPREEQYASTYRVVSVLTVLHQDWLNGKEYKCKVSNKALPAPIEKTISKAKGQPREPQVYTLPPSRCELTKNQVSLSCAVKGFYPSDIAVEWESNGQPENNYKTTPPVLDSDGSFFLVSKLTVDKSRWQQGNVFSCSVMHEALHNHYTQKSLSLSPDYKDDDDK
chain: EPKSSDKTHTCPPCPAPELLGGPSVFLFPPKPKDTLMISRTPEVTCVVVDVSHEDPEVKFNWYVDGVEVHNAKTKPREEQYNSTYRVVSVLTVLHQDWLNGKEYKCKVSNKALPAPIEKTISKAKGQPREPQVCTLPPSRDELTKNQVSLWCLVKGFYPSDIAVEWESNGQPENNYKTTPPVLDSDGSFFLYSKLTVDKSRWQQGNVFSCSVMHEALHNRYTQKSLSLSP

These binders were tested against T1, CD3 epsilon homodimer protein (UniProt P07766 23-126) (assay: SPR Biacore T200, CD3e homodimer on chip, antibody analyte;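 further: CD3 epsilon homodimer amine-coupled on CM4 sensor chip, antibodies injected as analyte at 25 °C in HBS-EP+, ratio ≥0.8 taken as binding retained versus unaltered parent antibody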).
T1 construct: Construct of the homodimer is not described; also called CD3 (CD3 epsilon)
T1 sequence (P07766 23-126): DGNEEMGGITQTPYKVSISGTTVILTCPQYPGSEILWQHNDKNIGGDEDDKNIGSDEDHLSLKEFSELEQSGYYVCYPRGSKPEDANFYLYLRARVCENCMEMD
B1 was tested, and the “ratio of amounts bound (altered form/GLS3000)” value was 0.73. B2 was tested, and the “ratio of amounts bound (altered form/GLS3000)” value was 0.72. For B3, the “ratio of amounts bound (altered form/GLS3000)” value was 0.85. In the case of B4, the “ratio of amounts bound (altered form/GLS3000)” value is reported as 0.25. With B5 the “ratio of amounts bound (altered form/GLS3000)” value was 0.75. For B6, the “ratio of amounts bound (altered form/GLS3000)” value was 1.13.
